# Test results: EP2338512A1 (MedImmune, LLC, dated 2011)
# B1: A4B4 (monoclonal antibody) (antibody, V domains shown)
# VH: QVTLRESGPALVKPTQTLTLTCTFSGFSLSTAGMSVGWIRQPPGKALEWLADIWWDDKKHYNPSLKDRLTISKDTSKNQVVLKVTNMDPADTATYYCARDMIFNFYFDVWGQGTTVTVSS
# VL: DIQMTQSPSTLSASVGDRVTITCSASSRVGYMHWYQQKPGKAPKLLIYDTFFLDSGVPSRFSGSGSGTEFTLTISSLQPDDFATYYCFQGSGYPFTFGGGTKLEIK
# What was measured:
# [1] = biological target: T1, RSV F glycoprotein (NUF4) (respiratory syncytial virus (strain not …)); experiment: ITC, NUF4 titrated into antibody
# Bac-F = experiment: BIAcore, monoclonal antibody vs Bac-F (1:1)
# [2] = biological target: T1, RSV F glycoprotein (NUF4); experiment: BIAcore, monoclonal antibody vs NUF4 (2:1)
# [3] = biological target: T1, RSV F glycoprotein (NUF4); experiment: BIAcore, monoclonal antibody vs NUF4 (1:1)
binder,measurement,setting,value
B1,ΔHb,[1],92.8 kJ/mol
same,"number in parentheses after KD (ratio to SYNAGIS, which has 1)",Bac-F,195 fold
same,"number in parentheses after KD (ratio to SYNAGIS, which has 1)",[2],156 fold
same,"number in parentheses after KD (ratio to SYNAGIS, which has 1)",[3],15 fold
